What was measured:
Cys45 = experiment: UV-vis; settings: 10 °C; poly-buffer: 10 mM sodium acetate, 10 mM sodium phosphate, 10 mM sodium borate, 10 mM sodium citrate, pH 9.4, titrated with 100 mM HCl; Reduced protein (20 µM), referenced to CHP-oxidised protein; folded.
Cys42 = experiment: UV-vis; settings: 10 °C; poly-buffer: 10 mM sodium acetate, 10 mM sodium phosphate, 10 mM sodium borate, 10 mM sodium citrate, pH 9.4, titrated with 100 mM HCl; Reduced protein (20 µM), referenced to CHP-oxidised protein; folded.

With “Alkyl hydroperoxide reductase CgAhp (NCgl0877), AhpD-like disulfide oxidoreductase (Corynebacterium glutamicum (strain RES167, derivative of ATCC 13032))” the pKa (Cys45) was 8.39 and the pKa (Cys42) was “lower than 6”.

From paper PMC10460364
